Data reported in IntAct's records for PubMed 19704022.

Legend:
[1] = molecular target: cof1_rat Cfl1 (UniProt P45592)
[2] = molecular target: cof1_rat Cfl1 (UniProt P45592); remark: listed apart in the source
[3] = molecular target: cofa_dicdi cofA (UniProt P0DJ26)
cofa_dicdi cofA, sequence (P0DJ26 whole entry): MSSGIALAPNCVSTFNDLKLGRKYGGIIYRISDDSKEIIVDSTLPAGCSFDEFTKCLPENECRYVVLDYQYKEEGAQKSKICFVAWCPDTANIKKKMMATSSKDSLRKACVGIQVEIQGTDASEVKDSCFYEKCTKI

Src substrate cortactin (Mus musculus), Q60598 Y421F;Y466F;Y482F, sequence (Q60598 whole entry Y421F/Y466F/Y482F): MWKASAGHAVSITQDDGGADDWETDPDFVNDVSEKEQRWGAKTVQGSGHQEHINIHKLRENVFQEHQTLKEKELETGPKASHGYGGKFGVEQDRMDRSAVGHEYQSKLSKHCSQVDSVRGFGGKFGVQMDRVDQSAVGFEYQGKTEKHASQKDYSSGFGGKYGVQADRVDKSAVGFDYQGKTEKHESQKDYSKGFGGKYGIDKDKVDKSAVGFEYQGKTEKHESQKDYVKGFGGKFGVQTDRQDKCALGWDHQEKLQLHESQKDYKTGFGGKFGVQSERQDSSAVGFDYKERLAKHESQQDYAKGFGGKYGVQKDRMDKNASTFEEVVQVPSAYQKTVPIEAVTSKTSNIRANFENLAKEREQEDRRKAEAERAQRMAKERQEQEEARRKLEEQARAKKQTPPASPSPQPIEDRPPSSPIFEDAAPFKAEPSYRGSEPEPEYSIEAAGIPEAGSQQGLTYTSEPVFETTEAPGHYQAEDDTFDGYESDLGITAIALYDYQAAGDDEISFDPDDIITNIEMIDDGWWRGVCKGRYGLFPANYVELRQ
cof1_rat Cfl1, sequence (P45592 whole entry): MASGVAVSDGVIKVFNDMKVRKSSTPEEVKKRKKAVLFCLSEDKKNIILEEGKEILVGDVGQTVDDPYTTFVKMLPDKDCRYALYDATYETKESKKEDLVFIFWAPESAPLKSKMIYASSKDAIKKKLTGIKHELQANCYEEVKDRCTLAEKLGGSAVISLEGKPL
Src substrate cortactin (Mus musculus), Q60598 Y421E;Y466E;Y482E, sequence (Q60598 whole entry Y421E/Y466E/Y482E): as the sequence (Q60598 whole entry Y421F/Y466F/Y482F) above, with F421E, F466E, F482E counted along it

Row | Substance | effect of a mutation on the interaction [1] | effect of a mutation on the interaction [2] | effect of a mutation on the interaction [3]
1 | Src substrate cortactin (Mus musculus), Q60598 Y421E;Y466E;Y482E | decreasing interaction | – | –
2 | Src substrate cortactin (Mus musculus), Q60598 Y421F;Y466F;Y482F | – | increasing interaction | increasing interaction
